Blank lines part the entries; values can stand above or below the binder they belong to.
Legend:
human CD94 [1] = biological target: T1, human CD94 (human, UniProt Q13241 1-179); experiment: table column 'HLA-E blocking'; flow cytometry on NK cells of healthy donor PBMCs, antibody at saturating concentration, blocked ligand PE labeled HLA-E tetramer; percent blocking = 100-((percent HLA-E positive with antibody)/(percent HLA-E positive with isotype)*100)
T1 construct: whole, on cells; Endogenous CD94 on primary cells (healthy-donor PBMC NK cells, CLPD-NK and T-LGLL patient cells), where it pairs with NKG2A or NKG2C; also called KLRD1; Natural killer cells antigen CD94
T1 sequence (looked up): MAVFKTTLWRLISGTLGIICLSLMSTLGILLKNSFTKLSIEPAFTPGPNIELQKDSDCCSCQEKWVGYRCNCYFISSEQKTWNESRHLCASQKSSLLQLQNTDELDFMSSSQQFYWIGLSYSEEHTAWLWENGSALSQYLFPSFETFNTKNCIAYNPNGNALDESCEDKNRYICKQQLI
Experimental: FIGS. 4A & 4B show the results of HLA-E tetramer blocking assays performed with anti-CD94 and commercially available anti-CD94 antibodies using flow cytometry. Healthy donor PBMCs were incubated with anti-CD94 antibodies. PE labeled HLA-E tetramer was then incubated with the cell and antibody mixture, and detected using flow cytometry. For HP-3B1, 131412, 12K45, DX22, 1M4 and 1E4, 2.5 μl of HLA-E tetramer reagent was used, while 5 μl was used for 18H3 and HP-3D9. Saturating concentrations of each antibody was used in this assay. The percent blocking was calculated as 100−((percent HLA-E positive for anti-CD94 antibody)/(percent HLA-E positive for isotype)*100).
(§1) Healthy donor PBMCs were seeded in 96-well plates at a density of 100,000 cells per well, incubated with human Fc block (Biolegend) and cell viability dye (Thermo Fisher) for 30 minutes on ice and protected from light. The cells were washed once with FACS buffer (PBS with 2% IgG low FBS). anti-CD94 antibodies at EC80 concentrations were incubated with cells for 30 minutes on ice and protected from light. After incubation with the anti-CD94 antibodies, the cells were washed and incubated with HLA-E tetramer PE (Creative Biolabs), anti-CD3 pacific blue-labelled, and anti-CD56 FITC-labelled antibodies (Biolegend) for 30 minutes on ice and protected from light. The cells then received a final wash in FACS buffer before quantification on the Cytoflex (Beckman Coulter). All data acquisition and fluorescence compensation were performed using CytoFlex (Beckman Coulter, Atlanta, Ga.). Data analysis was performed using FlowJo software. NK cells were identified through gating on lymphocytes on the forward and side scatter, followed by doublet and dead cell exclusion, and gated on the CD3−CD56+ population. HLA-E expression was then quantified on the CD3−CD56+NK cell population. Percent blocking was calculated as 100−((percent HLA-E positive for anti-CD94 antibody)/(percent HLA-E positive for isotype)*100).

human CD94 [2] = biological target: T1, human CD94; experiment: competition assay, flow cytometry on NK cells of healthy donor PBMCs; 18H3-AF647 titrated in the presence of 1E4 at 11 µg/ml
Experimental: (§2) FIGS. 5A-5B show the results of competition assays performed for 18H3 anti-CD94 antibody evaluation. For all competition assays, 18H3 was incubated with PBMCs at a concentration of 1.3 μg/ml. […] Commercially available anti-CD94 antibodies were titrated and incubated with PBMCs concurrently with 18H3. […] To test competition between 18H3 and 1M4/1E4, 1M4 and 1E4 were incubated with cells at concentrations of 8.5 μg/ml and 11 μg/ml, respectively. 18H3 was fluorescently tagged with AF647 and incubated with cells concurrently with […].
(§3) Healthy donor PBMCs were seeded in 96-well plates at a density of 100,000 cells per well, incubated with human Fc block (Biolegend) and cell viability dye (Thermo Fisher) for 30 minutes on ice and protected from light. The cells were washed once with FACS buffer (PBS with 2% IgG low FBS). Unconjugated anti-CD94 antibodies at EC80 concentrations, CD3 FITC and CD56 PE antibodies, and APC-labeled anti-CD94 antibodies were incubated with cells for 30 minutes on ice and protected from light. The cells then received a final wash in FACS buffer before quantification on the Cytoflex (Beckman Coulter). All data acquisition and fluorescence compensation were performed using CytoFlex (Beckman Coulter, Atlanta, Ga.). Data analysis was performed using FlowJo software. […] Anti-CD94 APC was then quantified on the CD3−CD56+NK cell population. […]

human CD94 [3] = biological target: T1, human CD94; experiment: flow cytometry titration (100 nM to 0.046 nM) on healthy-donor PBMCs, gated NK cells; EC50 from GraphPad Prism
Experimental: Peripheral blood monocuclear cells (PBMCs) of healthy donor HD-40 were used for antibody staining. 18H3 antibody was titrated from 100 nM to 0.046 nM in 1:3 dilutions and incubated with PBMCs. CD3 and CD56 antibodies were used to identify NK cells on the flow scatter. 18H3 antibody binding on […] and CD56 bright NK cells was used to assess affinity of 18H3. Titration curves and EC50 were generated using Graphpad Prism. […] Human IgG1 isotype control with secondary antibody (hIgG1) and goat (Fab)2 fragment anti-human Fcy-specific secondary antibody AF647 only (2ndary Ab) were used as controls.
Healthy donor PBMCs were seeded in 96 well plates at a density of 100,000 cells per well, incubated with human Fc block (Biolegend) and cell viability dye (Thermo Fisher) for 30 minutes on ice and protected from light. […] After incubation, the cells received a final wash in FACS buffer before quantification on the Cytoflex (Beckman Coulter). All data acquisition and fluorescence compensation were performed using CytoFlex (Beckman Coulter, Atlanta, Ga.). […] CD94 expression was then quantified on the CD3−CD56+NK cell population. […]
The affinity of the antibody clones was also assessed by flow cytometry analysis.

human CD94 [4] = biological target: T1, human CD94; experiment: competition assay, flow cytometry on NK cells of healthy donor PBMCs; 18H3-AF647 titrated, concurrently Mouse IgG1 control (or 1M4 at 8.5 µg/ml)
Experimental: as §2, §3

human CD94 [5] = biological target: T1, human CD94; experiment: flow cytometry titration of Alexa Fluor 647 conjugate on T-LGLL patient cells (CD3+CD16+); T-LGLL cells
Experimental: (§4) The ATX-130 antibody was produced in Expi-CHO cells cultured in the presence of kifunensine, a potent inhibitor of the mannosidase I enzyme, which is used to produce ATX-130-KIF mimicking non-fucosylated antibody. PBMCs of healthy donors were used for antibody staining ATX-130 antibody was titrated from 50 nM to 0.02 nM. Secondary anti-human antibody labeled with Alexa Fluor 647 was used to detect binding on CD3−CD56 bright NK cells. ATX-130-KIF antibody conjugated with Alexa Fluor 647 was titrated from 50 nM to 0.02 nM. T-LGLL cells were identified using CD3+CD16+ gating, while CLPD-NK cells were identified using CD3−CD16+ gating strategy. Titration curves and EC50 were generated using Graphpad Prism. […] Fluorescently labeled human IgG1-KIF isotype-KIF antibody was used as control. Arrows indicate ATX-130 and Human IgG1-KIF data points.
(§5) The affinity of the antibody clones was assessed by flow cytometry analysis. ATX-130-KIF mimicking non-fucosylated antibody was produced by culturing Expi-CHO cells cultured in the presence of kifunensine, a potent inhibitor of the mannosidase I enzyme. […] Thus, ATX-130 and ATX-130-KIF have similar binding affinity on primary human NK cells, cynomolgus NK cells, CLPD-NK cells, and T-LGLL cells.

cynomolgus CD94 [6] = biological target: T2, cynomolgus CD94 (cynomolgus monkey); experiment: flow cytometry titration of Alexa Fluor 647 conjugate (50 nM to 0.02 nM) on primary cynomolgus NK cells
T2 construct: whole, on cells; The construct expressed in HEK293 cells is not described further; also called cyno CD94; cynomolgus monkey CD94
Experimental: as §4, §5

human CD94 [7] = biological target: T1, human CD94; experiment: cell-based or functional assay
cynomolgus CD94 [8] = biological target: T2, cynomolgus CD94; experiment: cell-based or functional assay
human CD94 [9] = biological target: T1, human CD94; experiment: flow cytometry titration of Alexa Fluor 647 conjugate on CLPD-NK patient cells (CD3-CD16+); CLPD-NK cells
Experimental: as §4, §5

[10] = biological target: T3, CD94/NKG2C heterodimer on BaF3 cells (UniProt Q13241 1-179; P26717 1-231, limits assumed); experiment: flow cytometry titration (50 nM to 0.02 nM) on BaF3 cells, anti-human AF647 secondary antibody; BaF3 cells overexpressing CD94/NKG2C heterodimer
T3 construct: whole, on cells
T3 sequence (P26717 whole entry, one chain of several): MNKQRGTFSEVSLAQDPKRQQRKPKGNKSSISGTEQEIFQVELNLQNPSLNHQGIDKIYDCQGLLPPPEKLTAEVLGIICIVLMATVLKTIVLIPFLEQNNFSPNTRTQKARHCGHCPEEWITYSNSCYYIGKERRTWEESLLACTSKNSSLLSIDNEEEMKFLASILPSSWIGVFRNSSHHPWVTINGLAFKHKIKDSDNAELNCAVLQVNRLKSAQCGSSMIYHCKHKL
Experimental: (§6) BaF3 cells overexpressing CD94 homodimer (top panel), CD94/NKG2A heterodimer (lower left panel), and CD94/NKG2C heterodimer (lower right panel) were incubated with unconjugated ATX-130 antibody in a dilution series from 50 nM to 0.02 nM. Secondary anti-human antibody labeled with Alexa Fluor 647 was used to detect ATX-130 binding on cells.
(§7) The affinity of the antibody clone ATX-130 on CD94 homodimer and heterodimer was also assessed by flow cytometry analysis.

human CD94 [11] = biological target: T1, human CD94; experiment: flow cytometry titration (100 nM to 0.046 nM) on healthy-donor PBMCs, CD3-CD56bright NK cells; column 'Affinity on human NK cells (nM)'
cynomolgus CD94 [12] = biological target: T2, cynomolgus CD94; experiment: flow cytometry on HEK293 cells overexpressing cynomolgus CD94; unconjugated antibody in a dilution series, Alexa Fluor 647 anti-human secondary antibody
Experimental: For human NK cell binding, PBMCs were freshly isolated from healthy donors and incubated with unconjugated antibodies in a dilution series from 100 nM to 0.046 nM. Secondary anti-human antibody labeled with Alexa Fluor 647 was used to detect binding on CD3−CD56bright NK cells. For cynomolgus CD94 binding, HEK293 cells overexpressing cynomolgus CD94 were incubated with unconjugated antibodies in a dilution series from 100 nM to 0.046 nM. Secondary anti-human antibody labeled with Alexa Fluor 647 was used to detect binding on the cells.

[13] = biological target: T4, CD94/NKG2A heterodimer on BaF3 cells (UniProt Q13241 1-179; P26715 1-233, limits assumed); experiment: flow cytometry titration (50 nM to 0.02 nM) on BaF3 cells, anti-human AF647 secondary antibody; BaF3 cells overexpressing CD94/NKG2A heterodimer
T4 construct: whole, on cells
T4 sequence (P26715 whole entry, one chain of several): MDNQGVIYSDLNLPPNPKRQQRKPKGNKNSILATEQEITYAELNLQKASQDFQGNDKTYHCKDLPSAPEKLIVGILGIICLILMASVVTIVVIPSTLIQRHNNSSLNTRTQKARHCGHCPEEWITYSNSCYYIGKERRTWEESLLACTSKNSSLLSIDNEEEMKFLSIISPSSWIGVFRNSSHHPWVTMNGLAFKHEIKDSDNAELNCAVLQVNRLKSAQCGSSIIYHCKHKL
Experimental: as §6, §7

[14] = biological target: T5, CD94 homodimer on BaF3 cells (UniProt Q13241 1-179); experiment: flow cytometry titration (50 nM to 0.02 nM) on BaF3 cells, anti-human AF647 secondary antibody; BaF3 cells overexpressing CD94 homodimer
T5 construct: whole, on cells
T5 sequence (looked up): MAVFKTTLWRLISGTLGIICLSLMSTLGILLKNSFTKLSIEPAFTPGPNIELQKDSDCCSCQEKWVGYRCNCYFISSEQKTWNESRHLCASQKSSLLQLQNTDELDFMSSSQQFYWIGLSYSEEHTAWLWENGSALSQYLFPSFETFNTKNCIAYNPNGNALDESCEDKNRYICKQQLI
Experimental: as §6, §7

human CD94 [15] = biological target: T1, human CD94; experiment: HLA-E tetramer blocking on healthy-donor PBMCs, flow cytometry; competitor HLA-E tetramer
Experimental: as §1
Healthy donor PBMCs were incubated with anti-CD94 antibodies. PE labeled HLA-E tetramer was then incubated with cells and antibody mixture and detected by flow cytometry.
Percent blocking was calculated as 100−((percent HLA-E positive for anti-CD94 antibody)/(percent HLA-E positive for isotype)*100). If an antibody blocked more than 20% of HLA-E binding, it was considered a ligand-blocking antibody.

HLA-E blocking (human CD94 [1]): 0%
EC50 (read off the curve) (human CD94 [2]): ~3 nM
EC50 (human CD94 [3]): 2.6 nM
EC50 (read off the curve) (human CD94 [4]): ~0.8 nM
B1: anti-CD94 antibody 18H3 (antibody, V domains shown)
VH: EVQLVQSGAEVKKPGESLKISCKGSGYRFTSYWIGWVRQMPGKGLEWMGIIYPGDSDTRYSPSFQGQVIISADKSITTAFLQWSSLKASDTAMYYCARPFDYGGSPGYFDYWGQGTLVTVSS
VL: DIQMTQSPSTLSASVGDRVTITCRASQSIRSWLAWYQQKPGKAPKLLIYKASSLESGVPSRFSGSGSGTEFTLTISSLQPDDFATYYCQQYNTFWTFGQGTKVEIK
notes: Human variable domains from ATX-Gx Alloy transgenic mice; Screened as hybridoma supernatant; also called human IgG1 18H3

EC50 (human CD94 [5]): 3 nM
EC50 (cynomolgus CD94 [6]): 1 nM
IC50 of CLPD-NK leukemic cell depletion, ADCC assay with patient PBMCs (human CD94 [7]): 0.6 ng/mL
IC50 of T-LGLL leukemic cell depletion, ADCC assay with patient PBMCs (human CD94 [7]): 0.2 ng/mL
IC50 of human NK cell depletion, ADCC assay with healthy donor PBMCs (human CD94 [7]): 0.8 ng/mL
IC50 of cynomolgus NK cell depletion, ADCC assay with cynomolgus PBMCs (cynomolgus CD94 [8]): 0.3 ng/mL
EC50 (human CD94 [9]): 1.4 nM
B2: ATX-130-KIF (antibody, human IgG1, V domains shown)
VH: EVQLLESGGGLVKPGGSLRLSCAASGFTFSSYSMNWVRQAPGKGLEWVSSISTSSNFIYYADSVKGRFTISRDNAKNSLYLQMNSLRAEDTAVYYCARDLGRYYYYMDVWGKGTTVTVSS
VL: DIVMTQSPSSLSASVGDRVTITCRASQSISSWLAWYQQKPGKAPKSLIYAASSLQSGVPSKFSGSGSGTDFTLTISSLQPEDVATYYCQKYNSAPFTFGPGTKVDIK
notes: also called KIF-treated ATX-130; ATX-130-KIF Alexa Fluor 647

EC50 [10]: 1.8 nM
EC50 (human CD94 [11]): 0.6 nM
EC50 (read off the curve) (cynomolgus CD94 [12]): ~0.7 nM
EC50 [13]: 0.8 nM
EC50 [14]: 0.3 nM
percent HLA-E blocking (human CD94 [15]): 0%
B3: anti-CD94 antibody ATX-130 (antibody, human IgG1, V domains shown)
VH: EVQLLESGGGLVKPGGSLRLSCAASGFTFSSYSMNWVRQAPGKGLEWVSSISTSSNFIYYADSVKGRFTISRDNAKNSLYLQMNSLRAEDTAVYYCARDLGRYYYYMDVWGKGTTVTVSS
VL: DIVMTQSPSSLSASVGDRVTITCRASQSISSWLAWYQQKPGKAPKSLIYAASSLQSGVPSKFSGSGSGTDFTLTISSLQPEDVATYYCQKYNSAPFTFGPGTKVDIK
notes: also called hATX-130

Reference: US20220127365A1 (DREN BIO, published 2022)
